2 molecules from patent US20050245445A1 (BURNHAM INSTITUTE FOR MEDICAL RESEARCH, published 2005) can be followed below.

Where no end group is shown, it is not given here.

The target in experiment [1] is PDGFRβ overexpressed on transfected 293T cells. As to the kind of experiment: phage binding to transfected 293T cells, 2 hours at 4° C., bound phage counted by plaque assay.
For experiment [2], the target named is T1, PDGFRβ in RIP1-Tag2 mouse tumor tissue (mouse, UniProt P05622 32-1098).
T1 construct: whole, on cells; Endogenous receptor in tissue, seen only by immunostaining; also called PDGFRb (CD140b)
T1 sequence (P05622 32-1098): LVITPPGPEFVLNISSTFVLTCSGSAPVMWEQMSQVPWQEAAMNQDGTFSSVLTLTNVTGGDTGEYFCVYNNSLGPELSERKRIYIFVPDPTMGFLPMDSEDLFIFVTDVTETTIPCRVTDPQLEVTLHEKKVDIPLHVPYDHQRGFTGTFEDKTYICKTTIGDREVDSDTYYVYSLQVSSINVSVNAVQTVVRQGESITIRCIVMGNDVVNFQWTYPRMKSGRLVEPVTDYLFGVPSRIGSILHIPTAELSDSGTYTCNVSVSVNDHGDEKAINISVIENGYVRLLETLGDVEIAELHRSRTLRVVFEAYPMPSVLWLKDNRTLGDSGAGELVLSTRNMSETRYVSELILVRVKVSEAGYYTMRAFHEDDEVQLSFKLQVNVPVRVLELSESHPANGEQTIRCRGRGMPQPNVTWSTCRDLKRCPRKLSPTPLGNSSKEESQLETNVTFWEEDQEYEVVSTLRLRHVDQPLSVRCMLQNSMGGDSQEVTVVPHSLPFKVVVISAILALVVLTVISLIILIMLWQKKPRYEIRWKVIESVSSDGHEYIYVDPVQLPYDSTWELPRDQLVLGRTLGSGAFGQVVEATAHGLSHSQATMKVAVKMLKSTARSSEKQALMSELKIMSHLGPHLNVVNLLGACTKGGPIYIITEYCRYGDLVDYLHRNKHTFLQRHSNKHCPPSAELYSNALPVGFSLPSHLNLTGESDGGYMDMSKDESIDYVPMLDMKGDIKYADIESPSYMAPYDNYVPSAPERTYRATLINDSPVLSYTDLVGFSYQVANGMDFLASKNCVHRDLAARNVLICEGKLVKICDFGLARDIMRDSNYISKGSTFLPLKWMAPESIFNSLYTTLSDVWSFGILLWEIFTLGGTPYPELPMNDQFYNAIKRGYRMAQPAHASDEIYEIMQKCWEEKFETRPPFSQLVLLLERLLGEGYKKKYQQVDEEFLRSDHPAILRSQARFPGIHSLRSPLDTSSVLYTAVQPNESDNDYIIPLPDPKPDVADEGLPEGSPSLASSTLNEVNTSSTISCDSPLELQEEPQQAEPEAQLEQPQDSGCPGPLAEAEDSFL
As to the kind of experiment: co-localization of i.v. injected peptide with anti-PDGFRβ immunostaining in RIP1-Tag2 tumor sections. Here is the method:
For immunohistochemistry, frozen slides were pre-incubated with blocking buffer (1×PNB from NEN Biosciences) for one hour, washed several times in 1×PBS and incubated with the primary antibody of interest overnight at 4° C. The cell-specific antibodies used were rat monoclonal anti-mouse CD31 (1:200; BD Pharmingen), rat monoclonal anti-mouse MECA-32 (1:200; BD Pharmingen), rabbit polyclonal anti-mouse NG2 (1:200; Chemicon), and rat monoclonal anti-mouse PDGFRb (CD140b) (1:200; eBioscience). The corresponding secondary antibodies; Cy-3 donkey anti-rabbit IgG and Rhodamine Red donkey anti-rat IgG (Jackson ImmunoResearch), were used at a 1:200 dilution and incubated for one hour at room temperature. The following species-matched immunoglobulins were used as negative controls; rabbit IgG (Vector Laboratories) and rat IgG (Jackson ImmunoResearch) at a 1:200 dilution. The slides were washed several times in 1×PBS and mounted in Vectashield Mounting Medium with DAPI (Vector Laboratories). Hematoxylin and eosin (H&E) staining was performed for histological grading of adjacent sections by standard methods, and lesions were graded as previously described (Lopez and Hanahan, 2002).
In contrast, no binding above background was detected toward cells transfected with vascular endothelial growth factor receptor 2 (VEGFR2) (FIG. 5A).

B1: RGR phage (T7 phage displaying the RGR peptide CRGRRST) (peptide)
peptide: CRGRRST
In experiment [1], B1 had a fold binding to PDGFRβ-transfected cells over non-transfected cells of 20 fold.

B2: fluorescein-conjugated RGR peptide (CRGRRST) (peptide)
peptide: CRGRRST
modifications: also: fluorescein-conjugated (site of attachment not given here)
notes: Synthetic linear peptide made by Fmoc chemistry and injected intravenously into RIP1-Tag2 mice; also called RGR-FITC; fluorescein-conjugated CRGRRST peptide
As to B2, the binding result in experiment [2] was “binds”.
